Changes are numbered by the printed parent chain. Where only a bound is given, the exact number is not on record here.

To fix the notation:
B1: AS170036 VL1VH1-VHG56F (scFv)
scFv: QSALTQPRSVSGSPGQSVTISCAGTSSDVGSENYVSWYQQHPGKAPKLMIYQVNKRASGVPDRFSGSKSGNTASLTISGLQAEDEADYYCASYRSSDHNIVFGGGTKLTVLGGGGSGGGGSGGGGSEVQLVESGGGLVQPGGSLRLSCAASGFTFSSYAMSWVRQAPGKGLEWVSTINSGTFSPYYADSVKGRFTISRDNSKNTLYLQMNSLRAEDTAVYYCAKNFFDGSWFLGPPAMDYWGQGTLVTVSSHHHHHH
B2: AS170036 VL1VH1-VHS57R (scFv)
scFv: B1 scFv with F182G, S183R
B3: AS170036 VL1VH1-VHG108M (scFv)
scFv: B1 scFv with F182G, G234M
B4: AS170036 VL1VH1-VHG108E (scFv)
scFv: B1 scFv with F182G, G234E
B5: AS170036 VL1VH1-VHS57Q (scFv)
scFv: B1 scFv with F182G, S183Q
B6: AS170036 VL1VH1-VHG108N (scFv)
scFv: B1 scFv with F182G, G234N
B7: AS170036 VL1VH1-VLH98P (scFv)
scFv: B1 scFv with H98P, F182G
B8: AS170036 VL1VH1-VLH98T (scFv)
scFv: B1 scFv with H98T, F182G
B9: AS190259 scFv-mIgG2aFc (Fc fusion, not shown: a dimerising Fc or GST)
chain: QSVVTQPSAVSVSLEETATITCQGGGYYVNWYQQKPGQAPVLVIYLNTNRPSGIPERFSASKSGGTATLTINGAQAEDEAAYYCQSADSSGNSAVFGGGTHLTVLGGGGSGGGGSGGGGSQVQLVQSGGGLVQPGGSLRLSCAASGFTFSSYAMSWVRQAPGKGLEWVSAINSGGGSTYYADSVKGRFTISRDNAKNTLYLQLNSLKTEDTAMYYCAKAASGYGGSWWGDATLDAWGQGTLVTVSS
notes: Camel scFv; i647-labelled for flow cytometry
B10: AS190259 VL1VH1 scFv-mIgG2aFc (Fc fusion, not shown: a dimerising Fc or GST)
chain: SSELTQDPAVSVALGQTVRITCQGGGYYVNWYQQKPGQAPVLVIYLNTNRPSGIPDRFSGSSSGNTASLTITGAQAEDEADYYCQSADSSGNSAVFGGGTKLTVLGGGGSGGGGSGGGGSEVQLVESGGGLVQPGGSLRLSCAASGFTFSSYAMSWVRQAPGKGLEWVSAINSGGGSTYYADSVKGRFTISRDNSKNTLYLQMNSLRAEDTAVYYCAKAASGYGGSWWGDATLDAWGQGTLVTVSS
notes: Humanized
B11: AS190259 VL2VH1 scFv-mIgG2aFc (Fc fusion, not shown: a dimerising Fc or GST; small tags and cut ends)
scFv: B10 chain with R19T, D81A

One test addresses ZNF566 peptide/HLA-A*02:01 complex (recombinant) (human). The test is described as follows: SPR. On the technique in general: In SPR one partner is held on a chip, and binding of the other changes the refractive index at the surface.
As to B1, the binding result is recorded as “no binding”.

On to B2, for which the binding result is given as “no binding”.

Regarding B3, the binding result was “no binding”.

In the case of B4, the binding result is “no binding”.

For the molecule B5, the binding result was “no binding”.

As to B6, the binding result is listed as “no binding”.

With B7, the binding result is reported as “no binding”.

With B8, the binding result was “no binding”.

Another test addresses NR2E1 peptide/HLA-A*02:01 complex (recombinant) (human). Nature of the test: SPR.
Take B1: the binding result is recorded as “no binding”.

On to B2, for which the binding result is “no binding”.

Regarding B3, the binding result is given as “no binding”.

For the molecule B4, the binding result was “no binding”.

In the case of B5, the binding result is listed as “no binding”.

For the molecule B6, the binding result was “no binding”.

Regarding B7, the binding result is on record as “no binding”.

With B8, the binding result is given as “no binding”.

For another test, the target named is BRCA2 peptide/HLA-A*02:01 complex (recombinant) (human). The test is described as follows: SPR.
Consider B1, for which the binding result is on record as “no binding”.

For the molecule B2, the binding result is given as “no binding”.

In the case of B3, the binding result was “no binding”.

Turning to B4, the binding result is “no binding”.

Turning to B5, the binding result was “no binding”.

B6: the binding result is “no binding”.

Regarding B7, the binding result was “no binding”.

Take B8: the binding result is “no binding”.

In another test the target is ATG9A peptide/HLA-A*02:01 complex (recombinant) (human). Nature of the test: SPR.
Take B1: the binding result is “no binding”.

Consider B2, for which the binding result was “no binding”.

On to B3, for which the binding result is “no binding”.

Consider B4, for which the binding result is “no binding”.

Turning to B5, the binding result is “no binding”.

For B6, the binding result is reported as “no binding”.

As to B7, the binding result is “no binding”.

As for B8, the binding result is recorded as “no binding”.

Another test deals with OR1I1 peptide/HLA-A*02:01 complex (recombinant) (human). Nature of the test: SPR.
With B1, the binding result is reported as “no binding”.

B2: the binding result is listed as “no binding”.

As for B3, the binding result is listed as “no binding”.

Take B4: the binding result is recorded as “no binding”.

For the molecule B5, the binding result is reported as “no binding”.

Regarding B6, the binding result is listed as “no binding”.

In the case of B7, the binding result is “no binding”.

B8: the binding result is given as “no binding”.

For the next test, the target named is CDC14A peptide/HLA-A*02:01 complex (recombinant) (human). The test is described as follows: SPR.
With B1, the binding result is “no binding”.

As to B2, the binding result is “no binding”.

Consider B3, for which the binding result is given as “no binding”.

As for B4, the binding result is reported as “no binding”.

As for B5, the binding result is “no binding”.

As to B6, the binding result is “no binding”.

For the molecule B7, the binding result was “no binding”.

As for B8, the binding result is given as “no binding”.

Another test deals with OR51B6 peptide/HLA-A*02:01 complex (recombinant) (human). Nature of the test: SPR.
Regarding B1, the binding result is reported as “no binding”.

As for B2, the binding result is given as “no binding”.

On to B3, for which the binding result is recorded as “no binding”.

B4: the binding result is recorded as “no binding”.

Take B5: the binding result was “no binding”.

Regarding B6, the binding result is recorded as “no binding”.

For B7, the binding result was “no binding”.

Regarding B8, the binding result was “no binding”.

Another test addresses PTP4A1 peptide/HLA-A*02:01 complex (recombinant) (human). The test is described as follows: SPR.
For the molecule B1, the binding result was “no binding”.

B2: the binding result was “no binding”.

Turning to B3, the binding result is recorded as “no binding”.

B4: the binding result is reported as “no binding”.

For the molecule B5, the binding result is “no binding”.

In the case of B6, the binding result is recorded as “no binding”.

With B7, the binding result is reported as “no binding”.

For B8, the binding result was “no binding”.

Another test concerns the target OR6C1 peptide/HLA-A*02:01 complex (recombinant) (human). Nature of the test: SPR.
In the case of B1, the binding result is recorded as “no binding”.

Regarding B2, the binding result is “no binding”.

With B3, the binding result is “no binding”.

B4: the binding result is reported as “no binding”.

For the molecule B5, the binding result was “no binding”.

Take B6: the binding result was “no binding”.

Regarding B7, the binding result is on record as “no binding”.

Take B8: the binding result is listed as “no binding”.

A further test addresses ARNTL peptide/HLA-A*02:01 complex (recombinant) (human). Nature of the test: SPR.
For the molecule B1, the binding result is reported as “no binding”.

Turning to B2, the binding result is recorded as “no binding”.

For B3, the binding result is recorded as “no binding”.

Consider B4, for which the binding result was “no binding”.

Take B5: the binding result is “no binding”.

As for B6, the binding result is “no binding”.

For the molecule B7, the binding result is “no binding”.

Turning to B8, the binding result is “no binding”.

Another test concerns the target RCL1 peptide/HLA-A*02:01 complex (recombinant) (human, UniProt P16213 21-119 (Pongo pygmaeus entry)). The test is described as follows: SPR.
Take B1: the binding result is “no binding”.

In the case of B2, the binding result is reported as “no binding”.

Take B3: the binding result is on record as “no binding”.

In the case of B4, the binding result is given as “no binding”.

B5: the binding result is recorded as “no binding”.

Regarding B6, the binding result was “no binding”.

For B7, the binding result is recorded as “no binding”.

Turning to B8, the binding result is on record as “no binding”.

A further test deals with RP1 peptide/HLA-A*02:01 complex (recombinant) (human, UniProt P16213 21-119 (Pongo pygmaeus entry)). The test is described as follows: SPR.
On to B1, for which the binding result is recorded as “no binding”.

With B2, the binding result is “no binding”.

Take B3: the binding result was “no binding”.

With B4, the binding result is reported as “no binding”.

Turning to B5, the binding result was “no binding”.

For the molecule B6, the binding result is “no binding”.

Consider B7, for which the binding result was “no binding”.

As to B8, the binding result is reported as “no binding”.

The next test has as its target T1, AFP158/HLA-A*02:01 complex (human).
T1 construct: biotinylated on the BSP by BirA for ELISA and panning; also called biotinylated AFP158/HLA-A*02:01 complex; Bio-AFP158
Nature of the test: SPR, antibody captured via mIgG2a-Fc, complex as analyte.
Procedure: (§1) The binding affinity between selected antibodies and AFP158/HLA-A*02:01 complex was determined by surface plasmon resonance (SPR) on a BIAcore T200 instrument (GE Healthcare). The experiment was carried out as follows. The purified sdAb/scFv-mIgG2aFc protein were captured through mIgG2a-Fc onto the sensorchip. […] On-rate (kₐ) and off-rate (kd) were calculated based on association and dissociation curve, and were used to estimate the equilibrium dissociation constant (KD).
The Kd is the concentration at which binding is half-saturated. A high value points to lower affinity. Usually koff stands for the rate constant with which the complex falls apart. Broadly, the kon is a measure of how fast the partners come together. A higher kon goes with faster complex formation. On to B9, for which binding was put at a Kd of 390 nM, the koff amounted to 0.14 s⁻¹ and the kon amounted to 350000 M⁻¹ s⁻¹.

The next test has as its target T1, AFP158/HLA-A*02:01 complex. Nature of the test: SPR; vs AS170036 VL1VH1.
B1 came in with an Affinity increase of 2.3 fold.

With B2, the Affinity increase came to 2.8 fold.

B3 had an Affinity increase of 4.7 fold.

Regarding B4, the Affinity increase amounted to 4.1 fold.

On to B5, for which the Affinity increase stood at 2.4 fold.

For the molecule B6, the Affinity increase amounted to 2 fold.

The target of the next test is T1, AFP158/HLA-A*02:01 complex. The test is described as follows: SPR; vs AS170036 VL1VH1. This is another data set of the same source.
B1 returned an Affinity increase greater than 2 fold.

In the case of B2, the Affinity increase was greater than 2 fold.

Molecule B3 yielded an Affinity increase greater than 2 fold.

B4: the Affinity increase is greater than 2 fold.

For the molecule B5, the Affinity increase is greater than 2 fold.

On to B6, for which the Affinity increase was greater than 2 fold.

Molecule B7 gave an Affinity increase greater than 2 fold.

B8 showed an Affinity increase greater than 2 fold.

For another test, the target named is T1, AFP158/HLA-A*02:01 complex. The test is described as follows: SPR, scFv-mIgG2aFc from supernatant captured, complex as analyte.
Procedure: as §1
Humanized heavy chains and light chains were combined, and used to produce a series of humanized antibodies. These antibodies were synthesized as scFv-mIgG2aFc and transiently produced using HEK293 cells. The antibodies in the supernatant were subjected to SPR affinity assessment.
Regarding B9, the affinity, expressed as Kd, was 220 nM; the dissociation rate constant (koff) stood at 0.25 s⁻¹; the kon was 1.1e+06 M⁻¹ s⁻¹.

Take B10: the Kd is 200 nM, the koff was found to be 0.39 s⁻¹ and the association rate constant (kon) amounted to 2e+06 M⁻¹ s⁻¹.

In turn, B11 registered a dissociation constant Kd of 220 nM, a koff of 0.3 s⁻¹ and a kon of 1.4e+06 M⁻¹ s⁻¹.

A further test concerns the target T1, AFP158/HLA-A*02:01 complex. Nature of the test: SPR, crude scFv captured.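 Note: Peptide–MHC complex flowed at several concentrations over sensorchip-captured scFv, Kd derived from on- and off-rates obtained from the association and dissociation curves.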
Procedure: The experiment was carried out as follows. The crude scFv protein were captured onto the sensorchip. Different concentrations (320, 160, 40 nM) of AFP158/HLA-A*02:01 complex flowed over the sensorchip surface, and were allowed to bind the antibody fragment for 100 s followed by injection of the running buffer to allow dissociation of the complex. On-rate (kd) and off-rate (kd) were calculated based on association and dissociation curve, and were used to estimate the equilibrium dissociation constant (KD).
The molecule B1 came in with a Kd of 98 nM.

Regarding B2, binding was put at a Kd of 88 nM.

With B3, binding was characterised by a dissociation constant (Kd) of 58 nM. Against the preceding molecule, the Kd is about 1.5-fold lower.

As for B4, binding was characterised by a dissociation constant (Kd) of 56 nM.

B5 yielded a Kd of 100 nM.

In the case of B6, the Kd turned out to be 140 nM.

Values taken from patent US20240279318A1 (NANJING LEGEND BIOTECH, published 2024).
